# Test: label from the status in PepcDB records
row,Sequence,protein production
1,MRLVIHGKNIDITDGIRSYLNQKIERATSHFQNVINEVDVHLSVARNRSTAPKQTAEVTVFVNGSVIRAEESSENLYASIDLVADKIARKLRKLKEKRQDKSRAKDTNSVVEPEVVTDLVGDRTPQLPEQVVRMKYFAMPPMTIQEALEHLEMVDHDFYVFRNRDTGEINVVYERNHGGYGVIQPRPTSNNHHHNTADAAAKATAKAGPLEHHHHHH,not failed
2,MRMNMKKISLSLLTLGVLSGLSINASALPADFPVMPAATAPVSQYVTAVNADSSITFRLFAPTAKQVSVFTGSTPDSIVSHAMTKDEAGVWSFKTPVQAPNLYEYFFSVDGFRTIDTGTAFTKPQRQVNTSLILVPGSILDVRQIPHGELRTLTYHSNALKSERQMYVWTPPGYSESSKPLPVLYFYHGFGDTGASAVVQGRIPQMMDNLLAEKKIEPMLVVIPDTETDVPGIIPEEYPPQERRKVFYPRNALAADRELIHDIIPAIGKRFNVRQDANGRALAGLSQGGYQALVSGMSHLDHFGWLATFSGVTTETVPNMAVAAQLERPEQINQQLKNLTVVIGETDNITGKDIAGLKTMLEQKNIRFDYTHYPNLGHEMDVWRPAYSEFVQKLFK,failed
3,MRNDLFNREKSRQLSLTPRTEKIEVKHVGKTDPGTVFVMNKNISTPYSCAMHLSEWYCSKSILALVDGQPWDMYKPLTKSCEIKFLTFKDPDPREVNKAYWRSCAMMLGCVIERAFKDDYVVSLLRAPEVPVIAGAFCYDVTLDKRLDEWMPTKENLRSFTKDAHALIYRDLPFETLDVDARVALEIFQHNKYKVDFIEEKASQNPERIVKLHRIGDFIDVSEGPLIPRTSVCFQYEVSAVHNLNPSQPNLIRRFQGLSLPTHLRAQFTIWDKLVGRSRKMVTEDEVRQTENTESTQ,failed
4,MRNGRLLEACDDIPEEDIPSRRYEASMCYLRGLCYAKQNAFDRAKEAYKDALRIDVQCFEAFSQLVKNSLMSPDEEDEFMQSLAFDSIRAPGDDPDMEDEPADYVHMLYQTQLSKYRNPQAFNTAIESLSTHYGLENNADILLAKADLLYTQCRFKDALAITESILMDDKYNFAVYPIHLACLYELRKTNVLFLIAHELADTHPDEPCTWLAVGIYYFTTGKIADARRYFSKASMMDANFGPAWIGFAHTFAAEGEHDQAVTAYSTAARLFTGTHLPQVFLGMQNHAMNNMTAAEEFLKTAYSLCKTDPLLLNEMGIVLYHQDRLKEAVKMFDQVMAFGTAEMSRASEKRRMETMLSKLLQSLRPSTTSAIFSRRSTILPL,failed
5,MRNHKQSDRVLNLPAGYFGIVLGTIGMGFAWRYASQIWGISHWPGDIMVILAMIIWALLTLAFLSRLVRFPHSVMAEVRHPVMSSFVSLFPATTMLVAIGFVPWYRPLAVALFSVGVVIQLAYAAWQTAGLWRGAHPEEATTPGLYLPTVANNFISAMACGALGYNDAGLVFLGAGVFSWLSLEPVILQRLRSCGELPAVLRTSLGIQLAPALVACSAWLSVNGGEGDTLAKMLFGYGLLQLLFMLRLMPWYLSQPFNASFWSFSFGVSALATTGLHLGHGSESGLFHILAVPLFIFTNAIIALLLVRTFLLLVQGTLLIRTERAALLKTEEKNDRS,failed
6,MRNKKLIPFEVIEKAVAGEPEAIELVLQHYSPRIKYLSKYRGYINDDIQDRLKTQLIKAILQFRFDR,failed
7,MRNMNIYDSLLGAVHSEYDVLMLIKKSERGEVSLVRHRDSGTRYIFRHFYGNSEVYQKLLNVSCPNLPQIMEVGEKDGKTALLEEYVQGDTLSEILEGGLLTIAESKQIARQLCSALWVFHSMGVVHRDVKPDNVIIRGKEAVLIDFDASRIYKSTIQEDTQILGTTGFAAPEQYGLSQSDGRADIYALGVLLNIMLTGEHPSRKLAGGRMGRIVQRCTMVNPSKRYKNILHLLEVL,failed
8,MRNPHSNGNLRKLEADGGGEATEENGFVNGVILGLDGGATSTVCVCVPFFSFGERFPDPLPILGRAVAGCTNRNSVGETAARDSLEQVISEALVQSGFDKSDVRGVCLGVSGVNHPSDQEKIENWIRDMFPSHVKVYVQNDAIVALASGTMGKLHGCVLIAGTGCIAYGFDEDGKEARASGGGPILGDWGSGYGIAAQALTAVIRAHDGRGPQTMLTSTILKALGLSSPDELIGWTYADPSWARIAALVPQVVSCAEAGDEISDKILVDAAEDLALSVKAVVQRLGLCGKDGTASFPVVMVGGVLNANQKWDIGKEVSKRINRYFPGAQTIIPKVEPAVGAALLAMNFLSS,failed
9,MRNPSEDHMMRTPYQIVADHYAASDRHDPAAMMADIAPAIEWTEMAGFPCAGTYRSADEIVRNVFRRLGEEWDGYTFKLDALHDAGDTVIGVGRYSGTYRRTGKSFECRVAHVWRVDAGKIVHFEQFTDTLLVAQAMQP,not failed
10,MRNQFDLELHELEQSFLGLGQLVLETASKALLALASKDKEMAELIINKDHAINQGQSAIELTCARLLALQQPQVSDLRFVISIMSSCSDLERMGDHMAGIAKAVLQLKENQLAPDEEQLHQMGKLSLSMLADLLVAFPLHQASKAISIAQKDEQIDQYYYALSKEIIGLMKDQETSIPNGTQYLYIIGHLERFADYIANICERLVYLETGELVDLN,not failed
11,MRNSMMTIYPHLIICPHCDSVHHYRALNPGEAARCTRCQATLYRSGWINTGHSLALIQTAAIVFFIANSYPVLTVSFHALQNTATLWQAALALANGATLPLAIGCFFILIMAPFLQIMLTGWVLMFANKDRCAPGFIPVMKILLWLRPWSMLEIATLGFLIAAIKLSGFMQVMPGAGCWALAALMLLLVVVNSIDLRPLWSLVPTDSNHSVVRHEK,failed
12,MRNSNGGRDNRKSNRDQYRKPDYAGEMLFDDEEDYDDDADYDVVDDMKAHNDDYSDSAFGPDADNYDTDDDAWHDDVAAADDDPSDEDGYYDEEYDDTEDWQDMKDSKRKKKNRVWGIILALEIVTAIVIGVLFVKSYINNTYSKMQYNELKNTHINEDLNEESVKKMTGYTNIALFGIDTRDSGMVDDGVRSDSIIICSINNDTQEVKLLSVYRDTYLELCNDSQSYEKAAHAYAYGGAQGAVNMLNKNLDLNITDYVAVNFTALTEAIDALGGIDVELKEEELYKLNQCIDEQMGVNGIYSDYVYDTGVVHLNGVQATAYSRIRSTDEGDITRTWRQRTVISKMIEAAKSAGLSRLLDCINVVVDDVASSLTESEIMDMAKSCFNYKLSTTTGFPFTIASPTMNDVSYVVACDLATNATALHRFLFNDSNYTPSATVQNISDNIVNESGYGNQLDLDTFTVEDDVDSIVNTESDDY,failed
13,MRNTFIVCWQYLRAFALIYLCLLAGNAVSALLPFTIPGSIIGMLVLFTLLASQILPAQWVKPGCYLLIRHMALLFVPIGVGVMNYYDLVNQQFGPIVVSCLISTFIVMLVVGFSTQIMQRERATAGDRTPPKDNE,failed
14,MRPADRCRSPTGRPATGRHRPDIFTNTVEWDAFEAAPLYGDTTSSFVCQSRMTGEYFPKMGGHAMKNRLACTAVIAAIFCTTSASAQKLPEIWEVTKLVPGSAFHGVHGLGIDKAGHLFAGSVAGAMLYEVDIASGTAKVAIPAPIGMADDIAFAPDGTMAWTGFLAGDLYSRKGDGPIKKLASGLPGINSLAFRKDGRLYATTVFLGDTLYEIDVEGVKPPRQIMEKMGGLNGFEFGPDDKLYGPLWFKGQVAKVDVDKAELTVVADGFKVPAAVNFDSKGNLWVVDTALGQLVRVDPKSGAKTMVAQLKPSLDNLAIDEKDRIYVSNMADNGIQEVDPASGQAKQIIIGKLALPGGIGVTSENGKDTIHVADVFAYRTVDGTTGEVTEKARMHAAGVTLEYPMSATAKGNDVILSSWFTGTVQVIDNKTGATRDMLHDFKAPHDAIVLEDGSILVAELGTKSLVRVSGEHGKDRTTLIGDLEGPVGLVAGSRGEVYVTEAFAGVVSKIEQNGEKTVLVKELKMPEGLARTSDGKLIVAEVGARRLIEITPEDGKITEIAADLPIGLAGAPGGLPTHIPTGVAIGATGVIYFSSDIENAIYKAVKK,failed
15,MRPALTTVQVFALLAVALSTLVFAASFAVDTTSARPEPVAFDNTVQRGVTAADEQIARNRSISIPRAQVFYSQYRYVVGYVGIGQAVTALTEPGHEQQFGYPLAVYVSDYSDRPVRCGDDGSLRTATPPDWVEANQAHYVVDGSARVPSGPAVVPFADRDDAAAFTETCGGQIIDWETLKTYSFDLKQAAAVREQVGPRRSGADATVQAARQHRNRPVSVEVGTDAPTVQAAVDAAPPNTTVVVPAGTYNEQVMIDKPLSLSGPGATLDGGGNGTVVTVTADRVGVTGFEITGIGNTTVGDPTQSNDSAWDATVTTAYGNSDAAVTGRNASGLYVANITVETPASGVVLRRTPGAVVENVTVNGTADWQDGFMGVIGMHRPIVVQDSVFNGGRDGVYLHRADGTAVRNNAFRDNRFGVHLMYTSRSLVADNVARGQEYAGVVVMTNPVANAIVGNDVRHSGSGIMLAGSRSYIAHNVVVDTTQAMSTNADRSLYEHNVLYGNDIGVRASTVVPSNIVTDNDFIANDRHAISGPGPLRVYTHDGRGNYWSGAYDLTGGTGPVLAQSYSPTDSVDRRLHQTDAAVVLRAAPSVRGLRALRGTTPGFRRGSIVDRAPLADPANPETVRRLRNETSMEGAA,failed
16,MRPGQELAGPGLRQPRTGVPRRRHRRLPRRHRPAIVSLPPSYGPSMPDAHPPPSPSKDRSFAARVQTGALVIIAFAVVLALLVQAQFILISLAVSVILFSLTSDAIALVARVRFGPVKIPNWLASSLALLLLAIVLLSLAAVIVSQVNTVLLTALSYSEQAPAAVAAIFSWLGKDAEEAVLSSLRAVEISGYLRTLAAQAGTLMQATVLVILFVGFLFAERVWFPVKLLNLFGNPDRARRVEEIVSSIMHRVNRYLLVKTLVSAITGLLVWGVAMAFGLDLAAPLGMLTFILNFIPSLGSIVATLLIVLVTFVQTVDVSTALSVLALVGVIQFICGNILDPMLMGRALQLSSFGIIISLAFWGAIWGIPGMFLSVPIMVGLMIVCAETEALRPIAVLLSREGLAAPMHPERPAAPPRAEPETETVASRRVGL,failed
17,MRPRRWFAILVCLCCLVTAAWPAEVKGENKKKERLAVVTVDRVNVRQGPGVPYRPLANVHRGETYRLIDIKDGWLKIEWKKNKIGWIAASYAAPVREMEIVQEDRLRLRQEPGLDGRIIGHLAQGDQVIVIKEKGEWKQIVTKKAVGWVAASYLADAESPTGSRQTGVVTADSLNVRVAPSLDAERIGRLLHGERVEIVETKRDWYKIVTRSGLGGWVAAEYIEMKNGQAVGNPEEAVAESASPAAVDLVTIQGNGPRQYVKKWTRTPVQVLAGKTIVLDAGHGGKDGGAESVNGVTEKTLTMETAERLKEKLETYGARVVLTRVNDDYVPLSARVATARLYQADAFISLHYDSAEDEDASGITAYYYDRFADYGLAQSFQGPFSKLSALPFRGLAFGNYYVLRENERPSVLLELGYLSNRSDAEVVATDSYQETVTTAIVNAVRHYFQ,failed
18,MRPVGSKYLLEEPLGRGATGTVWRARQRETAGAEAAVAGQPGETVAIKVLKEELASDADIVMRFLRERSVLLRLTHPNIVRVRDLVVEGELLALVMDLIDGPDLHRYLRENGPLTPVAAALLTAQIADALAASHADGVVHRDLKPANVLLKQTGGEMHPMLTDFGIARLADSPGLTRTHEFVGTPAYVAPESAEGRPQTSAVDVYGAGILLYELVTGRPPFGGGSALEVLHQHLSAEPRRPSTVPDPLWTVIERCLRKNPDDRPSAENLARGLRVVAEGIGVHANSAQIGAAENVGALLAPDPAPAQVPGAPDAAYDPNGATSVLPHTSGPAGAADPTAVLPSTGAPDPTAVMPPVPPGQPGAPGQGGPEDPHPWQNQLRAARDRNEQTQVQYLDPNQDPLRRRPQRQVSRPPQQPRQAPQGPPPQQPGYGYPQQQQPQRYATPQPQQPQRYAPPPAPEPQQPRREPRPPRQRSANPMRIPGLGCLKGCLVTVVVLFVAGWLVWELSPLQEWIGTGKGYWDQLTDWFTTVTDWIGDLGGSGGG,failed
19,MRQFPPASSTVISVNFEELQAFVGRNPMLSLALVGLTIAIIVTEIARLFRGYRALKPAELTRLINSENALVIDLSPTADFEKGHIAGSRNVALAKFDPAGKLLANAKSSPVVVVCRSGNASAGAAKTLKKAGFEQVYWLEGGIAAWQMAELPLVKGRA,failed

# From a protein production outcome set (Wang et al. 2014)
